This passage reports fold Gli2-ZF Alexa-647 intensity on microtubules over Gli alone results from patent US20230374088A1.

The target of this assay is T1, Gli2-ZF-SNAP (human), P10070.
T1 chain: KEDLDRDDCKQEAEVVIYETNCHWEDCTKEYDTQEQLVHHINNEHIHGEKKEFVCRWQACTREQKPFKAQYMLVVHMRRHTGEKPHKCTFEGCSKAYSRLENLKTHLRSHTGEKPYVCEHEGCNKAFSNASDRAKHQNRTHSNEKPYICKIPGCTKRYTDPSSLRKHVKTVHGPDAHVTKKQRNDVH
As to the kind of experiment: TIRF microscopy; 100 nM Gli2-ZF-SNAP-Alexa647 with 100 nM kinesin on microtubules. The settings on record: remark: other sources report otherwise.

B1: Kif7-MM (monomeric Kif7 motor domain, 1-386aa), Q2M1P5 1-386 (protein)
chain: MGLEAQRLPGAEEAPVRVALRVRPLLPKELLHGHQSCLQVEPGLGRVTLGRDRHFGFHVVLAEDAGQEAVYQACVQPLLEAFFEGFNATVFAYGQTGSGKTYTMGEASVASLLEDEQGIVPRAMAEAFKLIDENDLLDCLVHVSYLEVYKEEFRDLLEVGTASRDIQLREDERGNVVLCGVKEVDVEGLDEVLSLLEMGNAARHTGATHLNHLSSRSHTVFTVTLEQRGRAPSRLPRPAPGQLLVSKFHFVDLAGSERVLKTGSTGERLKESIQINSSLLALGNVISALGDPQRRGSHIPYRDSKITRILKDSLGGNAKTVMIACVSPSSSDFDETLNTLNYASRAQNIRNRATVNWRPEAERPPEETASGARGPPRHRSETRIIH
modifications: here or on the partner: Alexa 647 dye on the SNAP tag in the TIRF assays
In the case of B1, the fold Gli2-ZF Alexa-647 intensity on microtubules over Gli alone was determined as 3 fold.
